# ± gives the standard error. Fewer inactive variants are shown than the library holds.
# B1: glmS ribozyme (parent)
# chain: AUAAAAGCGCCAGAACUACAGAAAUGUAGUUGACGAGGAGGAGGUUUAUCGAAUUUUCGGCGGAUGCCUCCAAA
# Variants of: B1
# Experiment: self-cleavage kobs at 10000 uM GlcN6P; higher = faster cleavage; RNA array
# Details: with glucosamine-6-phosphate
# Outline: (§1)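 Barcoded ribozyme variants on sequenced MiSeq chips were transcribed in situ by E. coli RNA polymerase and followed at 37 °C through a hybridised Cy3 probe. Glucosamine-6-phosphate at 40 μM to 10 mM in HEPES/KCl/Mg(OAc)2 buffer was flowed in, and tiles were imaged over ~14 h. Signals were normalised to baseline and to non-cleaving reference variants, and per-tile medians were fit to one- or two-exponential decays to give kobs. Weighted Michaelis–Menten fits across concentrations gave kcat and KM.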
row,Variant,self-cleavage kobs at 10000 uM GlcN6P [s⁻¹]
1,G9C U46A C58U,< 1e-05
2,G7A C8G G9C G29U G35C G37A,< 1e-05
3,C8A U65G,< 1e-05
4,U57C G66A,0.000102 ± 1.5e-05
5,C8A C34U A64U C68U,< 1e-05
6,G7A U30G G41A C70A,< 1e-05
7,A6C G7C G32A A52U,< 1e-05
8,C10A A15C A42C U55G C68U,< 1e-05
9,G9U A42U U55G,< 1e-05
10,G9A G29A G40U G51A,< 1e-05
11,C8A A14G C70G,< 1e-05
12,C10A C50U G59A,< 1e-05
13,G7U G51A U56G,< 1e-05
14,C8G C61G C70A,< 1e-05
15,G9A A15U A39G A52U G60U,< 1e-05
16,G9A A15G G35A A42U C70U,< 1e-05
17,G9A A12U C70G,< 1e-05
18,C8U C61U C68G,0.000133 ± 4.3e-05

row,Variant,self-cleavage kobs at 10000 uM GlcN6P [s⁻¹]
1,A6U C11A A39G,< 1e-05
2,G9U G62U,< 1e-05
3,C10U G35U A42G U56G,< 1e-05
4,A6U G59A U69G,< 1e-05
5,G7U A12U G35U G51U G66A,< 1e-05
6,C8U A15C G32U A36U A39C A48U,< 1e-05
7,A6C G43A G59C C70U,< 1e-05
8,A6G G29A G60C G63C,< 1e-05
9,A6U U45G G66A,0.000175 ± 4.1e-05
10,C10U A42G,3.17e-05 ± 7.6e-06
11,A6U U45G U46C,4.58e-05 ± 1.7e-05
12,A6G A12C A33G U45A G62U,< 1e-05
13,C10A A14G G32U A48C G59A,< 1e-05
14,C10G G32U G44A U54A C68A,< 1e-05
15,G9A U30C G35U U55G,< 1e-05
16,G9U A33U G40A C58U,< 1e-05
17,U56A G59A,4.86e-05 ± 9.7e-06

# Variants of: B1
# Experiment: self-cleavage kobs at 2500 uM GlcN6P; higher = faster cleavage; RNA array
# Details: with glucosamine-6-phosphate
# Outline: as §1
row,Variant,self-cleavage kobs at 2500 uM GlcN6P [s⁻¹]
1,C61G C68G,0.000131 ± 5.8e-05
2,U57C G66A,4.71e-05 ± 1.3e-05
3,A53U C67A C70A,5.59e-05 ± 2.7e-05
4,U56G G66C C71U,0.000269 ± 5.5e-05
5,U55G C58U C70U,4.84e-05 ± 1.7e-05
6,U57A A64U C67U U69G,8.87e-05 ± 2.4e-05
7,U56A G59A,5.17e-05 ± 1.7e-05

# — the supplement of paper PMC7125110
